Reference: patent publication US20250114463A1, “LIVER-TARGETED DRUG AND USE THEREOF” (HANMI PHARM. CO., LTD., priority 2021, published 2025)
Bridges are numbered along the chain shown (N, C = ends). Where no end group is shown, it is not given here. [ ]: non-standard residue; d: D form. Aib = CC(C)(N)C(=O)O

T1: human GIP receptor (human, UniProt P48546 22-466)
T1 sequence (looked up): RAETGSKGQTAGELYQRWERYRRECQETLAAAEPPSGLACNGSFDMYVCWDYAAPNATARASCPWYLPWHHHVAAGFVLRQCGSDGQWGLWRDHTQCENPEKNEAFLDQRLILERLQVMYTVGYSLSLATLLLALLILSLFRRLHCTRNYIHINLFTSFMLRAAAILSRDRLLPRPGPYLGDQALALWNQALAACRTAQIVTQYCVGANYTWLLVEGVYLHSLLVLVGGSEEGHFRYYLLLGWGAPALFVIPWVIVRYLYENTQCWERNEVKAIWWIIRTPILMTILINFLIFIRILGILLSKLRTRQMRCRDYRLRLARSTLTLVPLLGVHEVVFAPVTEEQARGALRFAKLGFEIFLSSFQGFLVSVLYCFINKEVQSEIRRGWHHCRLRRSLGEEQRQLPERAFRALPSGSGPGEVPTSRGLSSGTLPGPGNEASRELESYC

B1: triple agonist of SEQ ID NO: 27 (peptide)
peptide: HXQGTFTSDYSKYLDERACQDFVQWLLDQGGPSSGAPPPS
HELM: PEPTIDE1{H.[Aib].Q.G.T.F.T.S.D.Y.S.K.Y.L.D.E.R.A.C.Q.D.F.V.Q.W.L.L.D.Q.G.G.P.S.S.G.A.P.P.P.S.[am]}$$$$V2.0; N-terminus assumed
SMILES: CC(C)C[C@H](NC(=O)[C@H](CC(C)C)NC(=O)[C@H](Cc1c[nH]c2ccccc12)NC(=O)[C@H](CCC(N)=O)NC(=O)[C@@H](NC(=O)[C@H](Cc1ccccc1)NC(=O)[C@H](CC(=O)O)NC(=O)[C@H](CCC(N)=O)NC(=O)[C@H](CS)NC(=O)[C@H](C)NC(=O)[C@H](CCCNC(=N)N)NC(=O)[C@H](CCC(=O)O)NC(=O)[C@H](CC(=O)O)NC(=O)[C@H](CC(C)C)NC(=O)[C@H](Cc1ccc(O)cc1)NC(=O)[C@H](CCCCN)NC(=O)[C@H](CO)NC(=O)[C@H](Cc1ccc(O)cc1)NC(=O)[C@H](CC(=O)O)NC(=O)[C@H](CO)NC(=O)[C@@H](NC(=O)[C@H](Cc1ccccc1)NC(=O)[C@@H](NC(=O)CNC(=O)[C@H](CCC(N)=O)NC(=O)C(C)(C)NC(=O)[C@@H](N)Cc1c[nH]cn1)[C@@H](C)O)[C@@H](C)O)C(C)C)C(=O)N[C@@H](CC(=O)O)C(=O)N[C@@H](CCC(N)=O)C(=O)NCC(=O)NCC(=O)N1CCC[C@H]1C(=O)N[C@@H](CO)C(=O)N[C@@H](CO)C(=O)NCC(=O)N[C@@H](C)C(=O)N1CCC[C@H]1C(=O)N1CCC[C@H]1C(=O)N1CCC[C@H]1C(=O)N[C@@H](CO)C(N)=O
B2: triple agonist of SEQ ID NO: 25 (peptide)
peptide: HXQGTFTSDCSKYLDERAAQDFVQWLLDGGPSSGAPPPS
HELM: PEPTIDE1{H.[Aib].Q.G.T.F.T.S.D.C.S.K.Y.L.D.E.R.A.A.Q.D.F.V.Q.W.L.L.D.G.G.P.S.S.G.A.P.P.P.S.[am]}$$$$V2.0; N-terminus assumed
SMILES: CC(C)C[C@H](NC(=O)[C@H](CC(C)C)NC(=O)[C@H](Cc1c[nH]c2ccccc12)NC(=O)[C@H](CCC(N)=O)NC(=O)[C@@H](NC(=O)[C@H](Cc1ccccc1)NC(=O)[C@H](CC(=O)O)NC(=O)[C@H](CCC(N)=O)NC(=O)[C@H](C)NC(=O)[C@H](C)NC(=O)[C@H](CCCNC(=N)N)NC(=O)[C@H](CCC(=O)O)NC(=O)[C@H](CC(=O)O)NC(=O)[C@H](CC(C)C)NC(=O)[C@H](Cc1ccc(O)cc1)NC(=O)[C@H](CCCCN)NC(=O)[C@H](CO)NC(=O)[C@H](CS)NC(=O)[C@H](CC(=O)O)NC(=O)[C@H](CO)NC(=O)[C@@H](NC(=O)[C@H](Cc1ccccc1)NC(=O)[C@@H](NC(=O)CNC(=O)[C@H](CCC(N)=O)NC(=O)C(C)(C)NC(=O)[C@@H](N)Cc1c[nH]cn1)[C@@H](C)O)[C@@H](C)O)C(C)C)C(=O)N[C@@H](CC(=O)O)C(=O)NCC(=O)NCC(=O)N1CCC[C@H]1C(=O)N[C@@H](CO)C(=O)N[C@@H](CO)C(=O)NCC(=O)N[C@@H](C)C(=O)N1CCC[C@H]1C(=O)N1CCC[C@H]1C(=O)N1CCC[C@H]1C(=O)N[C@@H](CO)C(N)=O
B3: triple agonist of SEQ ID NO: 26 (peptide)
peptide: HXQGTFTSDCSKYLDSRAAQDFVQWLLDGGPSSGAPPPS
HELM: PEPTIDE1{H.[Aib].Q.G.T.F.T.S.D.C.S.K.Y.L.D.S.R.A.A.Q.D.F.V.Q.W.L.L.D.G.G.P.S.S.G.A.P.P.P.S.[am]}$$$$V2.0; N-terminus assumed
SMILES: CC(C)C[C@H](NC(=O)[C@H](CC(C)C)NC(=O)[C@H](Cc1c[nH]c2ccccc12)NC(=O)[C@H](CCC(N)=O)NC(=O)[C@@H](NC(=O)[C@H](Cc1ccccc1)NC(=O)[C@H](CC(=O)O)NC(=O)[C@H](CCC(N)=O)NC(=O)[C@H](C)NC(=O)[C@H](C)NC(=O)[C@H](CCCNC(=N)N)NC(=O)[C@H](CO)NC(=O)[C@H](CC(=O)O)NC(=O)[C@H](CC(C)C)NC(=O)[C@H](Cc1ccc(O)cc1)NC(=O)[C@H](CCCCN)NC(=O)[C@H](CO)NC(=O)[C@H](CS)NC(=O)[C@H](CC(=O)O)NC(=O)[C@H](CO)NC(=O)[C@@H](NC(=O)[C@H](Cc1ccccc1)NC(=O)[C@@H](NC(=O)CNC(=O)[C@H](CCC(N)=O)NC(=O)C(C)(C)NC(=O)[C@@H](N)Cc1c[nH]cn1)[C@@H](C)O)[C@@H](C)O)C(C)C)C(=O)N[C@@H](CC(=O)O)C(=O)NCC(=O)NCC(=O)N1CCC[C@H]1C(=O)N[C@@H](CO)C(=O)N[C@@H](CO)C(=O)NCC(=O)N[C@@H](C)C(=O)N1CCC[C@H]1C(=O)N1CCC[C@H]1C(=O)N1CCC[C@H]1C(=O)N[C@@H](CO)C(N)=O

Key:
Assay in all cases: cell-based or functional assay
[1] = target: human GCG receptor (human, UniProt P47871 26-477)
Chain of human GCG receptor (P47871 26-477): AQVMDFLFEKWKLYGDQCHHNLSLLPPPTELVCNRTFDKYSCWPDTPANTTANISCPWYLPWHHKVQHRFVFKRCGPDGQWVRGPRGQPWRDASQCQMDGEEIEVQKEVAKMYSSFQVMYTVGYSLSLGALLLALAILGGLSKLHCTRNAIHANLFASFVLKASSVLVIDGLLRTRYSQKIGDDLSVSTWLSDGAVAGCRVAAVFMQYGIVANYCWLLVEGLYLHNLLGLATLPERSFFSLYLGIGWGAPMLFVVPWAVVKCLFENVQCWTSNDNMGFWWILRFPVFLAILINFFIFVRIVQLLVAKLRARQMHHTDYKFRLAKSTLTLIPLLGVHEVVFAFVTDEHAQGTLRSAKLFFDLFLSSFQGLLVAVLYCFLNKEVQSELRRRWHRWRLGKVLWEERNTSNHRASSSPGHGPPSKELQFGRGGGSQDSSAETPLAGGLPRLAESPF

[2] = target: T1, human GIP receptor
[3] = target: human GLP-1 receptor (human, UniProt P43220 24-463)

Row | Binder | in vitro Activity Compared to Native Peptide (%), vs Glucagon [1] | in vitro Activity Compared to Native Peptide (%), vs GIP [2] | in vitro Activity Compared to Native Peptide (%), vs GLP-1 [3]
1 | H[Aib]QGTFTSDYSKYLDEKAAKEFVQWLLNTC (bridge 16-20; not fully specified (C-terminus)) [triple agonist of SEQ ID NO: 29] | 6% | < 0.1% | 38.5%
2 | B1 | 0.8% | 0.9% | 83.1%
3 | H[Aib]QGTFTSDYSKYLDEKAQKEFVQWLLDTC (bridge 16-20; not fully specified (C-terminus)) [triple agonist of SEQ ID NO: 30] | 0.7% | 0.8% | 142%
4 | B2 | 0.1% | < 0.1% | 82.6%
5 | B3 | 0.2% | < 0.1% | 64.5%
6 | H[Aib]QGTFTSDYSKYLDEKACKEFVQWLLAQ (bridge 16-20; not fully specified (C-terminus)) [triple agonist of SEQ ID NO: 31] | 2.2% | 2.4% | 135%
7 | H[Aib]QGTFTSDYSIAMDEIHQKDFVNWLLAQKC (bridge 16-20; not fully specified (C-terminus)) [triple agonist of SEQ ID NO: 33] | < 0.1% | 10.4% | 24.5%
8 | H[Aib]QGTFTSDYSKYLDEKACKDFVQWLLDGGPSSGAPPPS (bridge 16-20; not fully specified (C-terminus)) [triple agonist of SEQ ID NO: 32] | 1.7% | 8.8% | 151%
9 | H[Aib]QGTFTSDYSKYLDEKRAQEFVCWLLAQKGKKNDWKHNIT-NH2 [triple agonist of SEQ ID NO: 28] | 1.6% | < 0.1% | 17.2%
